Experiment [1] has as its system murine hematopoietic progenitors (lin-). Briefly: In vitro differentiation of murine hematopoietic progenitor cells transduced with retroviral constructs. It counts as cell-based. The note with it: for effect on differentiation of transduced progenitors: compared with control cells. The method, then:
FIG. 5. A heterologous oligomerization domain activates the transforming potential of RAR. (A-B) p53-RAR form oligomers. (A) Nuclear extracts from COS-1 cells transfected with expression vectors for p53-RAR or RAR were incubated with tritiated RA (10 nM), fractionated and analysed as described in FIG. 3A. Note that the low MW peak of RA-binding capacity (coinciding with RAR) in p53-RAR cells derives from expression of wild type RAR, starting from its own ATG-conserved in the p53-RAR expression vector (see below)-. (B) Fractions from gel filtration of in vitro translated, ^35-S labelled p53-RAR were analysed by SDS-PAGE, followed by autoradiography. Note that two products are generated in the reaction: full-length p53-RAR, fractionating in oligomeric complexes, and RAR, starting from the internal ATG site of RAR and fractionating as a monomer. (C-D) Effects of RAR chimeric proteins on differentiation of murine hematopoietic progenitors. Lin-cells were transduced with the indicated retroviral vectors and then sorted by FACS on the basis of their GFP positivity. In the case of ΔCC-PML-RAR, GFP+ cells were sorted in GFP^high or GFP^low expressors. After sorting, cells were either plated in differentiation medium in the absence or in the presence of RA (3 nM or 1 μM) (C), or analysed by Western blot (D). C, control, P-R, PML-RAR, ΔCC-P-R, ΔCC-PML-RAR, G-PR, GFP-PML-RAR, G-ΔCCPR, GFP-ΔCC-PML-RAR, G-p53R, GFP-p53-RAR. As described, RA delays myeloid differentiation of control cells, leading to a maximum 20-30% reduction in the number of Mac1 + cells (Purton et al., 1999). This effect is counter-acted by expression of PML-RAR and by high levels of ΔCC-PML-RAR. […]
The capacity of p53-RAR to block differentiation was evaluated using primary hematopoietic precursors purified from murine bone marrow on the basis of the absence of surface differentiation antigens (lin-see methods). […] After 8-10 days, colonies were pooled and analysed for the expression of myeloid differentiation markers (Mac-1 and GR-1). […]

The next experiment has as its target T1, GST-NCoR (Mus musculus, UniProt Q60974).
T1 construct: made in house
T1 sequence (Q60974 1782-2453): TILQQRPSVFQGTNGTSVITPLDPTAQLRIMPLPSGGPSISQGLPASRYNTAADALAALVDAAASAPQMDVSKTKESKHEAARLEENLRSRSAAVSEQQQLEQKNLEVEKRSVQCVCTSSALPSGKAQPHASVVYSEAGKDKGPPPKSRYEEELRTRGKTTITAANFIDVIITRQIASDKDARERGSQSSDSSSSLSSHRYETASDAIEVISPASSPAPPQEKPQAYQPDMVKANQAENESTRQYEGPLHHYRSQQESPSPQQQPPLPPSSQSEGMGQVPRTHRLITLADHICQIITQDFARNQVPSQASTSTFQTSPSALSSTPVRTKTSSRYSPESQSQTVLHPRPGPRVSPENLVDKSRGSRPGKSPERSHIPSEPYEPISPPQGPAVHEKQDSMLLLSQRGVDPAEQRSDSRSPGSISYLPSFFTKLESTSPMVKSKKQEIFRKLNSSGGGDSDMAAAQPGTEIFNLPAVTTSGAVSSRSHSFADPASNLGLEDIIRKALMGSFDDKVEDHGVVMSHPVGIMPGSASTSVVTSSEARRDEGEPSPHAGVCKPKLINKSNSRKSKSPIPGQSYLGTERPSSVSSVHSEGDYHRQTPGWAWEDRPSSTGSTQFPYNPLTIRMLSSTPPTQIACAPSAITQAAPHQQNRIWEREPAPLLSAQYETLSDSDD
Briefly: GST-NCoR pull-down assay with in vitro translated 35S labelled proteins. It counts as binding. The note with it: increasing amounts of GST-NCoR. The method, then:
FIG. 1. Enhanced recruitment of NCoR by PML-RAR is due to the coiled coil region of PML. Increasing amounts of GST -NCoR (from 150 ng to 10 μg) coupled to agarose beads were incubated with the indicated in vitro translated, ^35-S labelled proteins. On the left, a schematic representation of the in vitro translated products, with the tripartite motif of PML highlighted (R, RING finger; B, B boxes; CC, coiled coil). The input lanes are loaded with the same amounts used in the pull-down experiments.
Recruitment of the NCoR-HDAC complex is crucial for the transforming potential of PML-RAR. At low concentrations of RA (1-100 nM), the stability of the PML-RAR-NCoR complex is higher than that of the RAR-NCoR complex (Grignani et al., 1998; He et al., 1998; Lin et al., 1998). […] Pull-down assays were performed by incubation of in vitro translated, ^35S labelled PML-RAR or RAR with GST-NCoR coupled to agarose beads.
GST-NCoR (1782-2453) or GST-NCoR (RDIII) purification and in vitro interaction experiments were performed as described, incubating the indicated amounts of GST-NCoR attached to a constant amount of glutathione-agarose beads in the presence of the appropriate ^35-S labelled, in vitro translated proteins(Gelmetti et al., 1998; Grignani et al., 1998; Zamir et al., 1996). The input lanes represent 100% of the total. Coimmunoprecipitation experiments were performed as described(Gelmetti et al., 1998), using extracts from transiently transfected COS-1 cells, or in vitro translated products.

B1: PML-RAR: leukaemia-associated chimeric transcription factor, fusion of PML and RAR (protein)
chain: MEPAPARSPRPQQDPARPQEPTMPPPETPSEGRQPSPSPSPTERAPASEEEFQFLRCQQCQAEAKCPKLLPCLHTLCSGCLEASGMQCPICQAPWPLGADTPALDNVFFESLQRRLSVYRQIVDAQAVCTRCKESADFWCFECEQLLCAKCFEAHQWFLKHEARPLAELRNQSVREFLDGTRKTNNIFCSNPNHRTPTLTSIYCRGCSKPLCCSCALLDSSHSELKCDISAEIQQRQEELDAMTQALQEQDSAFGAVHAQMHAAVGQLGRARAETEELIRERVRQVVAHVRAQERELLEAVDARYQRDYEEMASRLGRLDAVLQRIRTGSALVQRMKCYASDQEVLDMHGFLRQALCRLRQEEPQSLQAAVRTDGFDEFKVRLQDLSSCITQGKDAAVSKKASPEAASTPRDPIDVDLPEEAERVKAQVQALGLAEAQPMAVVQSVPGAHPVPVYAFSIKGPSYGEDVSNTTTAQKRKCSQTQCPRKVIKMESEEGKEARLARSSPEQPRPSTSKAVSPPHLDGPPSPRSPVIGSEVFLPNSNHVASGAGEAIETQSSSSEEIVPSPPSPPPLPRIYKPCFVCQDKSSGYHYGVSACEGCKGFFRRSIQKNMVYTCHRDKNCIINKVTRNRCQYCRLQKCFEVGMSKESVRNDRNKKKKEVPKPECSESYTLTPEVGELIEKVRKAHQETFPALCQLGKYTTNNSSEQRVSLDIDLWDKFSELSTKCIIKTVEFAKQLPGFTTLTIADQITLLKAACLDILILRICTRYTPEQDTMTFSDGLTLNRTQMHNAGFGPLTDLVFAFANQLLPLEMDDAETGLLSAICLICGDRQDLEQPDRVDMLQEPLLEALKVYVRKRRPSRPHMFPKMLMKITDLRSISAKGAERVITLKMEIPGSMPPLIQEMLENSEGLDTLSGQPGGGGRDGGGLAPPPGSCSPSLSPSSNRSSPATHSP
For the molecule B1, in experiment [1] (Mac-1, 8-10 days in methylcellulose), the differentiation block entry is listed as “about 50%”. Moreover, the “effect on differentiation of transduced progenitors” value in experiment [1] is listed as “strong reduction in their capacity to differentiate”. In the experiment with GST-NCoR, the “binding to GST-NCoR” value was “bound specifically to the beads even at the lowest amounts of GST-NCoR tested”.

B2: p53-RAR: RAR fused C-terminally to the tetramerization domain present in p53 (protein)
chain: GEYFTLQIRGRERFEMFRELNEALELKDAQAGMASNSSSCPTPGGGHLNGYPVPPYAFFFPPMLGGLSPPGALTTLQHQLPVSGYSTPSPATIETQSSSSEEIVPSPPSPPPLPRIYKPCFVCQDKSSGYHYGVSACEGCKGFFRRSIQKNMVYTCHRDKNCIINKVTRNRCQYCRLQKCFEVGMSKESVRNDRNKKKKEVPKPECSESYTLTPEVGELIEKVRKAHQETFPALCQLGKYTTNNSSEQRVSLDIDLWDKFSELSTKCIIKTVEFAKQLPGFTTLTIADQITLLKAACLDILILRICTRYTPEQDTMTFSDGLTLNRTQMHNAGFGPLTDLVFAFANQLLPLEMDDAETGLLSAICLICGDRQDLEQPDRVDMLQEPLLEALKVYVRKRRPSRPHMFPKMLMKITDLRSISAKGAERVITLKMEIPGSMPPLIQEMLENSEGLDTLSGQPGGGGRDGGGLAPPPGSCSPSLSPSSNRSSPATHSP
Turning to B2, in experiment [1], the “effect on differentiation of transduced progenitors” value was “strong decrease in the number of Mac1+ and GR1+ cells”. In addition, in the experiment with GST-NCoR, the “binding to GST-NCoR” value is on record as “bound NCoR even at the lowest amounts of GST-NCoR tested”.

These data come from patent US20030207791A1, “Materials and methods relating to the treatment of leukaemias” (priority 2000, published 2003).
